Starred links: 1 amine or outer side, 2 acyl side, 3 side chain; linkers in the order of their positions; H or OH if unused. Non-standard residues stand in square brackets, D forms with d. Groups on a side chain read outwards from the residue. No end group written: not given here. *: point of attachment. C20 diacid = O=C(O)CCCCCCCCCCCCCCCCCCC(=O)*; C18 diacid = O=C(O)CCCCCCCCCCCCCCCCC(=O)*; γGlu = O=C(O)[C@H](CCC(=O)[*:2])N[*:1]; αMeF = C[C@](N)(Cc1ccccc1)C(=O)O; AEEA = NCCOCCOCC(=O)O; Aib = CC(C)(N)C(=O)O
Experiments:
[1] = molecular target: human glucagon receptor (hGCGR) (human, UniProt P47871 26-477); test: cell-based or functional assay
Chain of human glucagon receptor (hGCGR) (P47871 26-477): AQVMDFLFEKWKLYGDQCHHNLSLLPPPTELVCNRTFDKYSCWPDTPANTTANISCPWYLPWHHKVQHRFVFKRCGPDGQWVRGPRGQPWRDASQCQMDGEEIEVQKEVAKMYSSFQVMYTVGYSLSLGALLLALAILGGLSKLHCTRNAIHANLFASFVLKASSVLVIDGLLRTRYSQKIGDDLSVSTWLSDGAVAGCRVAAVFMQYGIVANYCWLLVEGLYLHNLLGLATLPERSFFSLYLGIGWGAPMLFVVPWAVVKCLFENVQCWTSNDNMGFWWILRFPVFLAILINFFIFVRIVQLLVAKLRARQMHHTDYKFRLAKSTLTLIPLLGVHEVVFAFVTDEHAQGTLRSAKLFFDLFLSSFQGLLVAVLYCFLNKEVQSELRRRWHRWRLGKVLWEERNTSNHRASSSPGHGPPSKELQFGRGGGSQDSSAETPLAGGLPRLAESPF

[2] = molecular target: human GLP-1 receptor (hGLP-1R) (human, UniProt P43220 24-463); test: cell-based or functional assay

Binder | hGluc-R EC50 (pM) [1] | hGLP-1R EC50 (pM) [2]
H[Aib]QGTFTSDVSK[αMeF]LDSK([AEEA-AEEA-γGlu-C18 diacid])RAQDFVRWIAE[Aib]G-OH (N-terminus assumed; SMILES CC[C@H](C)[C@H](NC(=O)[C@H](Cc1c[nH]c2ccccc12)NC(=O)[C@H](CCCNC(=N)N)NC(=O)[C@@H](NC(=O)[C@H](Cc1ccccc1)NC(=O)[C@H](CC(=O)O)NC(=O)[C@H](CCC(N)=O)NC(=O)[C@H](C)NC(=O)[C@H](CCCNC(=N)N)NC(=O)[C@H](CCCCNC(=O)COCCOCCNC(=O)COCCOCCNC(=O)CC[C@H](NC(=O)CCCCCCCCCCCCCCCCC(=O)O)C(=O)O)NC(=O)[C@H](CO)NC(=O)[C@H](CC(=O)O)NC(=O)[C@H](CC(C)C)NC(=O)[C@](C)(Cc1ccccc1)NC(=O)[C@H](CCCCN)NC(=O)[C@H](CO)NC(=O)[C@@H](NC(=O)[C@H](CC(=O)O)NC(=O)[C@H](CO)NC(=O)[C@@H](NC(=O)[C@H](Cc1ccccc1)NC(=O)[C@@H](NC(=O)CNC(=O)[C@H](CCC(N)=O)NC(=O)C(C)(C)NC(=O)[C@@H](N)Cc1c[nH]cn1)[C@@H](C)O)[C@@H](C)O)C(C)C)C(C)C)C(=O)N[C@@H](C)C(=O)N[C@@H](CCC(=O)O)C(=O)NC(C)(C)C(=O)NCC(=O)O) [Peptide 148] | 568 pM | 40.2 pM
H[Aib]QGTFTSDVSK[αMeF]LDSK([AEEA-AEEA-γGlu-C18 diacid])RAQDFVRWLL[Aib]E-OH (N-terminus assumed; SMILES CC(C)C[C@H](NC(=O)[C@H](Cc1c[nH]c2ccccc12)NC(=O)[C@H](CCCNC(=N)N)NC(=O)[C@@H](NC(=O)[C@H](Cc1ccccc1)NC(=O)[C@H](CC(=O)O)NC(=O)[C@H](CCC(N)=O)NC(=O)[C@H](C)NC(=O)[C@H](CCCNC(=N)N)NC(=O)[C@H](CCCCNC(=O)COCCOCCNC(=O)COCCOCCNC(=O)CC[C@H](NC(=O)CCCCCCCCCCCCCCCCC(=O)O)C(=O)O)NC(=O)[C@H](CO)NC(=O)[C@H](CC(=O)O)NC(=O)[C@H](CC(C)C)NC(=O)[C@](C)(Cc1ccccc1)NC(=O)[C@H](CCCCN)NC(=O)[C@H](CO)NC(=O)[C@@H](NC(=O)[C@H](CC(=O)O)NC(=O)[C@H](CO)NC(=O)[C@@H](NC(=O)[C@H](Cc1ccccc1)NC(=O)[C@@H](NC(=O)CNC(=O)[C@H](CCC(N)=O)NC(=O)C(C)(C)NC(=O)[C@@H](N)Cc1c[nH]cn1)[C@@H](C)O)[C@@H](C)O)C(C)C)C(C)C)C(=O)N[C@@H](CC(C)C)C(=O)NC(C)(C)C(=O)N[C@@H](CCC(=O)O)C(=O)O) [Peptide 152] | 20.4 pM | 11.9 pM
H[Aib]QGTFTSDVSK[αMeF]LDSK([AEEA-AEEA-γGlu-C20 diacid])RAQDFVRWLL[Aib]TE-OH (N-terminus assumed; SMILES CC(C)C[C@H](NC(=O)[C@H](Cc1c[nH]c2ccccc12)NC(=O)[C@H](CCCNC(=N)N)NC(=O)[C@@H](NC(=O)[C@H](Cc1ccccc1)NC(=O)[C@H](CC(=O)O)NC(=O)[C@H](CCC(N)=O)NC(=O)[C@H](C)NC(=O)[C@H](CCCNC(=N)N)NC(=O)[C@H](CCCCNC(=O)COCCOCCNC(=O)COCCOCCNC(=O)CC[C@H](NC(=O)CCCCCCCCCCCCCCCCCCC(=O)O)C(=O)O)NC(=O)[C@H](CO)NC(=O)[C@H](CC(=O)O)NC(=O)[C@H](CC(C)C)NC(=O)[C@](C)(Cc1ccccc1)NC(=O)[C@H](CCCCN)NC(=O)[C@H](CO)NC(=O)[C@@H](NC(=O)[C@H](CC(=O)O)NC(=O)[C@H](CO)NC(=O)[C@@H](NC(=O)[C@H](Cc1ccccc1)NC(=O)[C@@H](NC(=O)CNC(=O)[C@H](CCC(N)=O)NC(=O)C(C)(C)NC(=O)[C@@H](N)Cc1c[nH]cn1)[C@@H](C)O)[C@@H](C)O)C(C)C)C(C)C)C(=O)N[C@@H](CC(C)C)C(=O)NC(C)(C)C(=O)N[C@H](C(=O)N[C@@H](CCC(=O)O)C(=O)O)[C@@H](C)O) [Peptide 151] | 178 pM | 111 pM
H[Aib]QGTFTSDVSK[αMeF]LDSK([AEEA-AEEA-γGlu-C18 diacid])RAQDFVQWLL[Aib]TE-OH (N-terminus assumed; SMILES CC(C)C[C@H](NC(=O)[C@H](Cc1c[nH]c2ccccc12)NC(=O)[C@H](CCC(N)=O)NC(=O)[C@@H](NC(=O)[C@H](Cc1ccccc1)NC(=O)[C@H](CC(=O)O)NC(=O)[C@H](CCC(N)=O)NC(=O)[C@H](C)NC(=O)[C@H](CCCNC(=N)N)NC(=O)[C@H](CCCCNC(=O)COCCOCCNC(=O)COCCOCCNC(=O)CC[C@H](NC(=O)CCCCCCCCCCCCCCCCC(=O)O)C(=O)O)NC(=O)[C@H](CO)NC(=O)[C@H](CC(=O)O)NC(=O)[C@H](CC(C)C)NC(=O)[C@](C)(Cc1ccccc1)NC(=O)[C@H](CCCCN)NC(=O)[C@H](CO)NC(=O)[C@@H](NC(=O)[C@H](CC(=O)O)NC(=O)[C@H](CO)NC(=O)[C@@H](NC(=O)[C@H](Cc1ccccc1)NC(=O)[C@@H](NC(=O)CNC(=O)[C@H](CCC(N)=O)NC(=O)C(C)(C)NC(=O)[C@@H](N)Cc1c[nH]cn1)[C@@H](C)O)[C@@H](C)O)C(C)C)C(C)C)C(=O)N[C@@H](CC(C)C)C(=O)NC(C)(C)C(=O)N[C@H](C(=O)N[C@@H](CCC(=O)O)C(=O)O)[C@@H](C)O) [Peptide 150] | 355 pM | 166 pM
H[Aib]QGTFTSDVSK[αMeF]LDSK([AEEA-AEEA-γGlu-C18 diacid])RAQDFVRWVVE[Aib]G-OH (N-terminus assumed; SMILES CC(C)C[C@H](NC(=O)[C@](C)(Cc1ccccc1)NC(=O)[C@H](CCCCN)NC(=O)[C@H](CO)NC(=O)[C@@H](NC(=O)[C@H](CC(=O)O)NC(=O)[C@H](CO)NC(=O)[C@@H](NC(=O)[C@H](Cc1ccccc1)NC(=O)[C@@H](NC(=O)CNC(=O)[C@H](CCC(N)=O)NC(=O)C(C)(C)NC(=O)[C@@H](N)Cc1c[nH]cn1)[C@@H](C)O)[C@@H](C)O)C(C)C)C(=O)N[C@@H](CC(=O)O)C(=O)N[C@@H](CO)C(=O)N[C@@H](CCCCNC(=O)COCCOCCNC(=O)COCCOCCNC(=O)CC[C@H](NC(=O)CCCCCCCCCCCCCCCCC(=O)O)C(=O)O)C(=O)N[C@@H](CCCNC(=N)N)C(=O)N[C@@H](C)C(=O)N[C@@H](CCC(N)=O)C(=O)N[C@@H](CC(=O)O)C(=O)N[C@@H](Cc1ccccc1)C(=O)N[C@H](C(=O)N[C@@H](CCCNC(=N)N)C(=O)N[C@@H](Cc1c[nH]c2ccccc12)C(=O)N[C@H](C(=O)N[C@H](C(=O)N[C@@H](CCC(=O)O)C(=O)NC(C)(C)C(=O)NCC(=O)O)C(C)C)C(C)C)C(C)C) [Peptide 149] | 2650 pM | 8.71 pM
H[Aib]QGTFTSDVSK[αMeF]LDSK([AEEA-AEEA-γGlu-C18 diacid])RAQDFVRWLEA[Aib]G-OH (N-terminus assumed; SMILES CC(C)C[C@H](NC(=O)[C@H](Cc1c[nH]c2ccccc12)NC(=O)[C@H](CCCNC(=N)N)NC(=O)[C@@H](NC(=O)[C@H](Cc1ccccc1)NC(=O)[C@H](CC(=O)O)NC(=O)[C@H](CCC(N)=O)NC(=O)[C@H](C)NC(=O)[C@H](CCCNC(=N)N)NC(=O)[C@H](CCCCNC(=O)COCCOCCNC(=O)COCCOCCNC(=O)CC[C@H](NC(=O)CCCCCCCCCCCCCCCCC(=O)O)C(=O)O)NC(=O)[C@H](CO)NC(=O)[C@H](CC(=O)O)NC(=O)[C@H](CC(C)C)NC(=O)[C@](C)(Cc1ccccc1)NC(=O)[C@H](CCCCN)NC(=O)[C@H](CO)NC(=O)[C@@H](NC(=O)[C@H](CC(=O)O)NC(=O)[C@H](CO)NC(=O)[C@@H](NC(=O)[C@H](Cc1ccccc1)NC(=O)[C@@H](NC(=O)CNC(=O)[C@H](CCC(N)=O)NC(=O)C(C)(C)NC(=O)[C@@H](N)Cc1c[nH]cn1)[C@@H](C)O)[C@@H](C)O)C(C)C)C(C)C)C(=O)N[C@@H](CCC(=O)O)C(=O)N[C@@H](C)C(=O)NC(C)(C)C(=O)NCC(=O)O) [Peptide 147] | 43.5 pM | 15.3 pM
H[Aib]QGTFTSDVSK[αMeF]LDSK([AEEA-AEEA-γGlu-C18 diacid])RAQDFVRWLASR-OH (N-terminus assumed; SMILES CC(C)C[C@H](NC(=O)[C@H](Cc1c[nH]c2ccccc12)NC(=O)[C@H](CCCNC(=N)N)NC(=O)[C@@H](NC(=O)[C@H](Cc1ccccc1)NC(=O)[C@H](CC(=O)O)NC(=O)[C@H](CCC(N)=O)NC(=O)[C@H](C)NC(=O)[C@H](CCCNC(=N)N)NC(=O)[C@H](CCCCNC(=O)COCCOCCNC(=O)COCCOCCNC(=O)CC[C@H](NC(=O)CCCCCCCCCCCCCCCCC(=O)O)C(=O)O)NC(=O)[C@H](CO)NC(=O)[C@H](CC(=O)O)NC(=O)[C@H](CC(C)C)NC(=O)[C@](C)(Cc1ccccc1)NC(=O)[C@H](CCCCN)NC(=O)[C@H](CO)NC(=O)[C@@H](NC(=O)[C@H](CC(=O)O)NC(=O)[C@H](CO)NC(=O)[C@@H](NC(=O)[C@H](Cc1ccccc1)NC(=O)[C@@H](NC(=O)CNC(=O)[C@H](CCC(N)=O)NC(=O)C(C)(C)NC(=O)[C@@H](N)Cc1c[nH]cn1)[C@@H](C)O)[C@@H](C)O)C(C)C)C(C)C)C(=O)N[C@@H](C)C(=O)N[C@@H](CO)C(=O)N[C@@H](CCCNC(=N)N)C(=O)O) [Peptide 146] | 1630 pM | 24.6 pM
